Source: publication doi:10.1101/2022.04.21.488985 (bioRxiv, 2022)

Target: T1, bovine serum albumin (Bos taurus, UniProt P02769)
T1 construct: also called BSA
Assay: ELISA

T1 sequence (P02769 25-607): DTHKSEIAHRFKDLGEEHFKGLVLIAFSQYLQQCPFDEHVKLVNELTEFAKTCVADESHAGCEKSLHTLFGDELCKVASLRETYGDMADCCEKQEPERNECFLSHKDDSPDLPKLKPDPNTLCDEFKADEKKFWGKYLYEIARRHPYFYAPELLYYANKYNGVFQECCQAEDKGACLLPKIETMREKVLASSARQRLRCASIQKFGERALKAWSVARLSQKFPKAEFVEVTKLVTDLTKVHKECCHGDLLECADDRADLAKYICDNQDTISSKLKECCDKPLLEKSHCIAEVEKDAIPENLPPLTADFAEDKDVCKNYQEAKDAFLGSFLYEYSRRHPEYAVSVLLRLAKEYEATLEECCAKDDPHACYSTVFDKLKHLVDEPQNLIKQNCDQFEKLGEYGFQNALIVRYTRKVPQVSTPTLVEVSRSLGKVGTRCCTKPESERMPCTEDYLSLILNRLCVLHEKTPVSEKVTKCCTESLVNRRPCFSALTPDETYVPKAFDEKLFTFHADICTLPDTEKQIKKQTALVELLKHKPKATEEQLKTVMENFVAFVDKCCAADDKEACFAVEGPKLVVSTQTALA

B1: D5 nanobody (camel VHH) (VHH)
VHH: AWQLVESGGGSVQPGGSLTLTCQASKSTFSTSGMRWERQAQGKGVEFVADISSDSTRKWYSDSVKGRFTISRSNWWRTVTLQMNDLKPEDTARYYCKDLESHHLRGQGTQVTVSS
notes: also called single domain antibody D5
- binding result: no binding
